# Source: the nanobody polyreactivity screen of Harvey et al. (2022)
# Test: yeast display, Sf9 membrane polyspecificity reagent, FACS + sequencing; frameworks hold sequencing errors
# Outline: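 Nanobodies came from a synthetic yeast display library in Saccharomyces cerevisiae BJ5465, induced with galactose for 36–48 hours and stained for 1 hour at 4 °C with 10% biotinylated, detergent-solubilized Sf9 membrane reagent. Cells were enriched on streptavidin microbeads and then FACS-sorted, with low and high (top ~1%) gates set on anti-HA fluorescence for expression and streptavidin fluorescence for reagent binding. Each polyreactivity label reflects the gate a clone came from. Genes were amplified by colony PCR, sequenced by MiSeq 2 × 250 and filtered by CDR length.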
row,Sequence,polyreactivity (PSR sort gate)
1,QVQLVESGGGLVQAGGSLRLSCAASGFTFGSNTMGWYRQAPGKERELVAAITYTGGRTYYADSVKGRFTISRDNAKNTVYLQMNSLKPEDTAVYYCAAEYHFWSYSPGYDYWGQGTQVTVSS,high polyreactivity
2,QVQLVESGGGLVQAGGSLRLSCAASGRTFDFYAMGWYRQAPGKERELVAGITSGDSTHYADSVKGRFTISRDNAKNTVYLQMNSLKPEDTAVYYCAADITWYDYAGSHIVEHDYWGQGTQVTVSS,low polyreactivity
3,QVQLVESGGGLVQAGGSLRLSCAASGRTFYGYTMGWYRPAPGKERELVAAITYSGDSTYYADSVKGRFTISRDNAKNTVYLQLNSLKPEDTAVYYCNAVGRYPVYWWGYYYWGQGTQVTVSS,high polyreactivity
4,QVQLVESGGGLVQAGGSLRLSCAASRRTYKYNAMGWYRQAPGKEREVVAAISRSGGSTYYADSVKGRFTISRDNAKNTVYLQMNILKPEDTAVYDCAVSYRPGGYRRHFRYVYWGQGTQVTVSS,high polyreactivity
5,QVQLVESGGGLVQAGGSLRLSCAASGFTLTQNAMGWYRQAPGKERELVAAISRSGGRTYYADSVKGRFTISRDNAKNTVYLQMNSLKPEDTAVYYCNAYVTYPGTTMDDWGQGTQVTVSS,high polyreactivity
6,QVQLVESGGGLVQAGGSLRLSCAASGFTFGNYAMGWYRQAQGKERELVDAISGSGGSTYYADSVKGRFTISRYNAKNTVYLQMNSLKPEDTAVYYCAARYWVTYWPDYYYWGQGTQVTVPS,high polyreactivity
7,QVQLVESGGGLVQAGCSLRLSCAASGRTFVYNAMGWYRKAPGKERELVAGITGSGDSTYYADSVKGRFTISRDNAKNTVYLQMNSMKPEDTAVYYCNQLVEEDYWGQGTQVTVSS,low polyreactivity
8,QVQLVESGGGLVQAGGSLRLSCAASGRIFSPYAMGWYRQAPGKERELVAAITSSGGSSYYADSVKGRFTISRDYAKNTVYLQMNSLKPEDTAVYYCNARRGRYTPSVNYWGQGTQVTVSS,high polyreactivity
9,QVQLVESGGGLVQAGGSLRLSCAASGLTFSKYVMGWYRQAPGKERELVAGISRSSGSTYYADSVKGRFTISRDNAKNTVYLQMNSLKPEDTAVYYCAARARRKYDYWGQGTQVTVSS,high polyreactivity
10,QVQLVESGGGLVQAGGSLRLSCAASGSIFSVNTMGGYRQAPGKERELVADISSGDSTYYADSVKGRFTISRDNAKNTVYLQMNSLKPEDTAVYFCNADVYSWVSGKEGDYWGQGTQVTVSS,low polyreactivity
11,QVQLVESGGGLVQAGGSLRLSCAASGRTFIVYAMGWYRQAPGKERELVAAITRSGSSTYYADSVKGRFTISRDNAKNTVYLQMNSLKPEDTAVYYCAADVGFGGYSHFDPYEYWGQGTQVTVSS,high polyreactivity
12,QVQLVESGGGLVQAGGSLRLICAASGFIFTTYAMGWYRQAPGKEREVVAAISSSGTTYYADSVKGRFTISRDNAKNTVYLQMNSLKPEDTAVYYCAARRQFRSYQQRLYYWGQGTQVTVSS,low polyreactivity
13,QVQLVESGGGLVQAGGSLRLSCAAYGRTFRKNAMGWYRQAPVKERELVASMSKNGAGTYYADSVKGRFTISRDTAKNTVYLQMNSLKPEDTAVYYCAKLPNLPGDYWGQGTQVTVSS,low polyreactivity
14,QLQLVESGGGLVQAGGSLRLSCAASGRTFAIYAMGWYRQAPGKERELVAAIRKRGSITYYADSVKGRFTISRDNAKNTVYLQMNSLKPDATAVYYCAVDYWGQGTQVTVSS,high polyreactivity
15,QVQLVESGGGLVQAGGSLRLSCAASGSIYSNAMGWYRQAPGKERELVAAISRTGGSTYYADSVKGLFTISRDNAKITVYLQMNSLKPEDTAVYYCAVSAWTRSHALYYWGQGTQVTVSS,high polyreactivity
16,QVQLVESGGGLVQAGGSLRLSCAASGITFEGYAMGWYRQAPGKEREFVAAITGSGSTTYYADSVKGRFTITRDNAKNTVYLQMNSLKPEDTAVYYCVAYVGSTYSAPEYYWGQGTQVTVSS,low polyreactivity
17,QVQLVESGGGLVQAGGSLRLSCAASGSIFAHYTMGWYRQAPGKERELVAVISRSGARTYYADSVKGRFTISRDNAKNTVYLQMNSLKPEDTAVYYCAATWGSVQKGTYYYWGQGTQVTVSS,low polyreactivity
18,QVQLVESGGGLVQAGGSLRLSCAASGRIFIYNAMGWYCQAPGKERELVAAINRSGVSTHYADSVKGRFTISRDNAKNTVYLQMNSLKPEDTAVYYCARTDYGARSYDYWGQGTQVTVSS,low polyreactivity
19,QVHLVESGGGLVQAGGSLRLSCAASGLTFWAYTLGWYRQAPGQERELVAAITSSGGRTYYADSVKGRFTISRDNAKNTVYLQMNSLKPEDTGVYYCNARIFRSPTPYDYWGQGTQVTVSS,high polyreactivity
20,QVQLVESGGGLVQAGGSLRLSCAASGFTFYAYAMGWYREAPGKERELVATIRRSTGSTYYADSVKGRFTISRDNAKNTVYLQMNSLKQQDTAVYYFATRVWFPITSYDYWGQGTQVTVSS,low polyreactivity
21,QVQLVESGGGLVQAGGSLRLSCAASGRIFWVYAMGWYRQAPGKERELVAAISSTGDGTYYADSVKGRFTISRDNAKNTVYLQMNSLKPVDTAVYYCAADFRVARSPLSGGSDYWGQGTQVTVSS,low polyreactivity

row,Sequence,polyreactivity (PSR sort gate)
1,QVQLVESGGGLVQAGGSLRLSCAASGITFFAYAMGWYRQAPGKERELVAAISTDGGSTYYADSVKGRFTISRDNAKNTVYLQMNSLKPEDTAVYYCAAKQRYVRTRGMDYWGQGTQVTVSS,high polyreactivity
2,QVQLVESGGGLVQAGGSLRLSCAASGSTYAGYAMGWYRQAPGKERELVAAISRRGGSTYYADSVKGRFTISRDNAKNTVYLQMNSLKPEDTAVNYCNRDKYLRDPDYDYWGQGTQVTVSS,low polyreactivity
3,QVQLVESGGGLVQAGGSLRLSCAASGSTLSLYAMGWYRQAPGKERELVAAITSSGGTYYADSVKGRFTISRDNAKNTVYLQMNSLKPEDTAVYYCNAYAKDARSYGYHRVNYWGQGTQVTVSS,high polyreactivity
4,QVQLVESGGGLVQAGGSLRLSCAASGSIFDYNAMGWYTQAPGKERELVAAITSGGSTNYADSVKGRFTISRDNAKNTVYLQMNTLKPEDTAVYYCAADHDYYPTNLDYWGQGTQVTVSS,low polyreactivity
5,QVQLVESGGGLVQAGGSLRLSCAASGRTFTPYDMGWYRPAPGKERELVAAITWRGGSTYYADSVKGRFTISRDNAKNTVYLQMNSLKPEDTAVYYCAKDRWTYAFRVGYGYWGQGTQVTVSS,high polyreactivity
6,QVQHVESGGGLVQAGGSLRLSCAASGNIIPYNAKAWYRQAPGKERELVATISSGGSTYYADSVKGRFTISRDNAKNTVYLQMNSLKPEDTAVYYCAARGRYPYLYGYWGQGTQVTVSS,high polyreactivity
7,QVQLVESGGGLVQAGGSLRLSCAASGSIFNGYVMGWYRQAPGKERELVASINRGGTTNYADSVKGRFTISRDNAKNTVYLQMNSLKPEDTAVYYCAVDDDANSLGGYYVLFDYWGQGTQVTVSS,low polyreactivity
8,QVQLVESGGGLVQAGGSLRLSCAASGLIFENNAMGWYRQAPGKERELVAAITKGGGSTYYADSVKGRFTISRDNAKNTVYLQMNSLKPVDTAVYYCAKDHPWHRYWQYWYDYWGLGTQVTVSS,low polyreactivity
9,QVQLVESGGGLVQAGGSLRLSCAASGSIFLRYAMGWYRQAPGKERELVAAISGRGGSTYYADSVKGRFTISRDNAKNTVYLQMNSLKPEDTAVYYCAAYRGRSLEYDYWGQGTQVTVSS,high polyreactivity
10,QVQLVESGGGLVQAGGSLRLSLLPPDSPSTTMLWDGIDRRLGKKGSWLPVFLPSGGTTYADSVKGRFTISRDNAKNTVYLQMNSLKPEDTAVYYCAASYYRTRWSWMYYWGQGTQVTVSS,low polyreactivity
11,REQLQESGGGLVQAGGSLRLSCAASGTIFIRGDMGWYRQSPGKEREFVATIDTGSNTYYADSEKGRFTISRDNAINAVYLQMYCLKPGYTAVYYCVVDYQLSGRLRYWGQGTQVTLSS,low polyreactivity
12,QVQLVESGGGLVQAGRSLRLSCAASGRTFLVYAMGWYRQAPGKERELVAVINSGTSTNYADSVKGRFTISRDNAKNTVYLQMNSQKPEDTAVYYCATAYRRRDRHYYWGQGTQVTVSS,low polyreactivity
13,QVQLVESGGGLVQAGGSLRLSCAASGRIIGLYALGWYRQATGKERELVAAISSAGSTYYADSVKGRFTISRDNAKNTVYLQMNSLKPEDTAVYYCAKSRYRGYDYWGQGTQVTVSS,low polyreactivity
14,QDQLVESGGGLVQAGGSLRLSCAASGSIFRKYVMGWYRQAPGKERELVAAISGSGGRTYYADSVKGRFTISRDNAKNTVYLQMNSLKPEDTAVYYSNAYPHAYTGSTREGDYWGQGTQVTVSS,high polyreactivity
15,QVQLVESGGGLVQAGGSLRLSCAASGSTFAQNAMGWYRQAPGKEREYVAAITGTVGSTYYADSVKGRFTISRDNAKNTVYLQMNSLKPEDTAVYYCNTRGFNGRVYPYDYWGQGTQVTVSS,low polyreactivity
16,QVQLVESGGGLVQAGGSLRLSCAASGSTFPINAMGWYRQAPGKERELVACISSGGSTDYADSVKGRFTISRVNAKNTVYLQMNSLKAEHTAVYYWAAVRGPSLVTKYPHDYWGQGTQVTVSS,low polyreactivity
17,QVQLVESGGGLVQAGGSLRLSCAASGSTLPSYAMGWYRQAPGKERELVAAISSSGGRTYYADSVKGRFTISRDNAKNTVYLQMNSLKPEDTAVYYCAALSVANYHGTDSGYWGQGTQVTVSS,high polyreactivity
18,QVQLVESAGGLVQAGGSLRLSCAASGSISGYAMGWYRQAPGKQRELVAAISRRGGSTYYADSVKGRFTISRDNEKNTVYLQMNSLKPEDTAVYFCAADPYTRQPNSDRYYWGQGTQVTVSS,high polyreactivity
19,QVQLVESGGGLVQAGGSLRLSCAASRSTFRDNAMGWYRQAPGKVRELVAGITRGGITNYADSVKGRYTISRDNAKNTVYLQMNSLKPEDTEVYYFAAEVTGTYYDYDYWGQGTQVTVSS,low polyreactivity
20,QVQLVESGGGLVQAGGSLRLSCAASGSTLNSYVMGWYRQAPGKERELVATIRSGSSTNYADSVKGRFTISRDNAKNTVYLQMNSLKPEDTAVYDCAADAYSLCYDSWGQGTQVTVSS,low polyreactivity
